Experiments:
[1] = target: DS-Cav1-foldon-I53-50 nanostructure, 100% valency (respiratory syncytial virus (RSV)); assay: SPR, D25 immobilised, antigen at 50 nM heat-stressed at 70 °C for 1 h (FIG. 10)
[2] = target: DS-Cav1-foldon-I53-50A trimer (respiratory syncytial virus (RSV)); assay: as above

## D25 monoclonal antibody
[1]
  percent of binding signal retained after 70 °C for 1 hour: 80%
[2]
  percent of binding signal retained after 70 °C for 1 hour: 50%

Reference: patent US20240150411A1
